Assay results from article PMC2397485 (2008).
Each block holds one binder with its values, some of them ahead of it.

Assays:
Test in all cases: high-speed co-sedimentation
[1] = biological target: F-actin (skeletal muscle) (Oryctolagus cuniculus, UniProt P68135)
[2] = biological target: F-actin (act1-102) (Saccharomyces cerevisiae, UniProt P60010)
[3] = biological target: F-actin (Saccharomyces cerevisiae, UniProt P60010)

Kd [1]: 7.1 µM
B1: Scp1(1-180) 1-180 (protein)
chain: MSYDKKADVTSLDEDLRQLRESKFSPEAIQNIKIWVYKSVLKEIAPPGDLLECLKDGTVLCKLANILYEADTGEANHISWKSSKMPFVQMDQISQFLSFSRKYGVPEDELFQTIDLFEKKDPAIVFQTLKSLSRYANKKHTDRFPVLGPQLSTKKPRPPVKSKPKHLQDGTGWSTFEYGY

Kd [1]: 2.1 µM
Kd [2]: 7.9 µM
Kd [3]: 1.3 µM
B2: Scp1 (protein)
chain: SYDKKADVTSLDEDLRQLRESKFSPEAIQNIKIWVYKSVLKEIAPPGDLLECLKDGTVLCKLANILYEADTGEANHISWKSSKMPFVQMDQISQFLSFSRKYGVPEDELFQTIDLFEKKDPAIVFQTLKSLSRYANKKHTDRFPVLGPQLSTKKPRPPVKSKPKHLQDGTGWSTFEYGYMKGASQATEGVVLGQRRDIV
